Test results reported in paper PMC3431827.

Target: 2,4,6-TCP 4-monooxygenase (TcpA) from Cupriavidus necator JMP134 (Cupriavidus necator JMP134)
Assay: SEC-MALS; 100 μg TcpA on BioSep-SEC-S 2000 column, isocratic, 0.5 mL/min; multi-angle laser light scattering; tetramer

## 2,4,6-TCP 4-monooxygenase (TcpA) from Cupriavidus necator JMP134 (enzyme)
  stoichiometry N: 4
